Reference: patent US20220177587A1, “METHODS AND USES OF VARIANT CD80 FUSION PROTEINS AND RELATED CONSTRUCTS” (Alpine Immune Sciences, Inc., priority 2018, published 2022)

Tests used:
human CTLA-4 (human) [1] = target: human CTLA-4 (human) (UniProt P16410); test: flow cytometry, CHO cells expressing huCTLA4
CD28 (human) [2] = target: CD28 (human) (UniProt P10747); test: flow cytometry, Jurkat/IL2 reporter cells (CD28)
human PD-L1 (human) [3] = target: human PD-L1 (human) (UniProt Q9NZQ7); test: flow cytometry, CHO cells expressing huPD-L1, vs WT CD80 ECD-Fc (R&D)
Target sequence in this assay (Q9NZQ7 19-290): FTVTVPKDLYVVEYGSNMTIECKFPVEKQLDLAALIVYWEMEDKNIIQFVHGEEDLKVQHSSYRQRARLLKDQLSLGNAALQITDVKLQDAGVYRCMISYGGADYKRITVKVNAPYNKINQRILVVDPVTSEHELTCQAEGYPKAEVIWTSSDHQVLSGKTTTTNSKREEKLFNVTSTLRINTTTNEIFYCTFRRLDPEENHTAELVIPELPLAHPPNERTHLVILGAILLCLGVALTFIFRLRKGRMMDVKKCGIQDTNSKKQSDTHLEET

CD28 (human) [4] = target: CD28 (human) (UniProt P10747); test: flow cytometry, Jurkat/IL2 reporter cells (CD28), vs WT CD80 ECD-Fc (R&D)
human PD-L1 (human) [5] = target: human PD-L1 (human) (UniProt Q9NZQ7); test: flow cytometry, CHO cells expressing huPD-L1
Target sequence in this assay (Q9NZQ7 19-290): as above

human CTLA-4 (human) [6] = target: human CTLA-4 (human) (UniProt P16410); test: flow cytometry, CHO cells expressing huCTLA4, vs WT CD80 ECD-Fc (R&D)
CD28 (human) [7] = target: CD28 (human) (UniProt P10747); test: flow cytometry, Jurkat cells (CD28); vs WT CD80 ECD-Fc (Abcam)
[8] = target: human PD-L1 (huPD-L1), on stably transduced CHO cells (human) (UniProt Q9NZQ7); test: flow cytometry on CHO/huPD-L1 cells; MFI relative to WT CD80 (CD80 WT IgV-Fc = 1.0)
Sequence of human PD-L1 (huPD-L1), on stably transduced CHO cells (human) (Q9NZQ7 19-290): as above

[9] = target: human CTLA-4 (huCTLA4), on stably transduced CHO cells (human) (UniProt P16410); test: flow cytometry on CHO cells stably expressing huCTLA4, 33.3 nM Fc fusion, PE anti-human Fc
Sequence of human CTLA-4 (huCTLA4), on stably transduced CHO cells (human) (P16410 36-223): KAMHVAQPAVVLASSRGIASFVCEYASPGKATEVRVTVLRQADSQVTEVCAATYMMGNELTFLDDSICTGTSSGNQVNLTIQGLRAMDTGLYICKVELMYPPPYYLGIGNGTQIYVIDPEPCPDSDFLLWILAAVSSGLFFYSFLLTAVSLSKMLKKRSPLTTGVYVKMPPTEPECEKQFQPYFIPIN

[10] = target: human PD-L1 (huPD-L1), on stably transduced CHO cells (human) (UniProt Q9NZQ7); test: flow cytometry; ratio of MFI on CHO/huPD-L1 cells to MFI on Jurkat (CD28) cells
human CTLA-4 (human) [11] = target: human CTLA-4 (human) (UniProt P16410); test: flow cytometry, CHO cells expressing huCTLA-4
CD28 (human) [12] = target: CD28 (human) (UniProt P10747)
human PD-L1 (human) [13] = target: human PD-L1 (human) (UniProt Q9NZQ7)
Target sequence in this assay (Q9NZQ7 19-290 limits assumed): as the sequence (Q9NZQ7 19-290) above

[14] = target: human PD-L1 (huPD-L1), on stably transduced CHO cells (human) (UniProt Q9NZQ7); test: flow cytometry on CHO cells stably expressing huPD-L1, 33.3 nM Fc fusion, PE anti-human Fc
human PD-L1 (human) [15] = target: human PD-L1 (human) (UniProt Q9NZQ7); test: flow cytometry; PD-L1 MFI over CD28 MFI of the same protein
Target sequence in this assay (Q9NZQ7 19-290): as above

[16] = target: CD28, endogenously expressed on Jurkat/IL2 reporter cells (human) (UniProt P10747); test: flow cytometry on Jurkat/IL2 reporter cells (endogenous CD28), 33.3 nM Fc fusion, PE anti-human Fc
[17] = target: human CTLA-4 (huCTLA4), on stably transduced CHO cells (human) (UniProt P16410); test: flow cytometry on CHO/huCTLA4 cells; MFI relative to WT CD80 (CD80 WT IgV-Fc = 1.0)
[18] = target: CD28, endogenously expressed on Jurkat/IL2 reporter cells (human) (UniProt P10747); test: flow cytometry on Jurkat (CD28) cells; MFI relative to WT CD80 (CD80 WT IgV-Fc = 1.0)
human CTLA-4 (human) [19] = target: human CTLA-4 (human) (UniProt P16410); test: flow cytometry, CHO/huCTLA-4 cells; vs WT CD80 ECD-Fc (Abcam)
human PD-L1 (human) [20] = target: human PD-L1 (human) (UniProt Q9NZQ7); test: flow cytometry, CHO/huPD-L1 cells; vs WT CD80 ECD-Fc (Abcam)
Target sequence in this assay (Q9NZQ7 19-290): as above

Sequence of human CTLA-4 (human) (P16410 36-223): as the sequence (P16410 36-223) above

Row | Binder | MFI at 33.3 nM (human CTLA-4 (human) [1]) [MFI] | MFI at 33.3 nM (CD28 (human) [2]) [MFI] | Fold change to WT CD80 (human PD-L1 (human) [3]) [fold] | Fold change to WT CD80 (CD28 (human) [4]) [fold] | MFI at 33.3 nM (human PD-L1 (human) [5]) [MFI] | Fold change to WT CD80 (human CTLA-4 (human) [6]) [fold] | Fold change to WT CD80 (CD28 (human) [7]) [fold] | Fold change to WT CD80 [8] [fold] | MFI at 33.3 nM [9] [MFI] | Ratio of PDL1:CD28 [10] | MFI at 33.3 nM (human CTLA-4 (human) [11]) [MFI] | IL-2 luciferase reporter, fold increase over WT CD80-IgV-Fc at 5.0 nM (CD28 (human) [12]) [fold] | IL-2 luciferase reporter, fold increase over WT CD80-IgV-Fc at 5.0 nM (human PD-L1 (human) [13]) [fold] | MFI at 33.3 nM [14] [MFI] | Ratio of PDL1:CD28 (human PD-L1 (human) [15]) | MFI at 33.3 nM [16] [MFI] | Fold change to WT CD80 [17] [fold] | Fold change to WT CD80 [18] [fold] | Fold change to WT CD80 (human CTLA-4 (human) [19]) [fold] | Fold change to WT CD80 (human PD-L1 (human) [20]) [fold]
1 | variant CD80 IgV-Fc E35D/T41S/M43V/M47I/L70M/A71G (Fc fusion) VIHVTKEVKEVATLSCGHNVSVEELAQTRIYWQKDKKMVLSMVSGDINIWPEYKNRTIFDITNNLSIVIMGLRPSDEGTYECVVLKYEKDAFKREHLAEVTLSVKAD | 249000 | 2700 | 1.09 | 0.15 | 13000 | 1.59 | – | – | – | – | – | – | – | – | – | – | – | – | – | –
2 | variant CD80 IgV-Fc E35D/M47V (Fc fusion) VIHVTKEVKEVATLSCGHNVSVEELAQTRIYWQKDKKMVLTMMSGDVNIWPEYKNRTIFDITNNLSIVILALRPSDEGTYECVVLKYEKDAFKREHLAEVTLSVKAD | – | 501 | – | – | 6800 | – | 0.7 | 41.7 | 20900 | 6 | 44600 | 4.7 | 4.7 | 2940 | 13.6 | 461 | 10.9 | 7 | 1.1 | 53.1
3 | variant CD80 IgV-Fc E35D/D46E/M47V/N63D/L85Q (Fc fusion) VIHVTKEVKEVATLSCGHNVSVEELAQTRIYWQKDKKMVLTMMSGEVNIWPEYKNRTIFDITDNLSIVILALRPSDEGTYECVVQKYEKDAFKREHLAEVTLSVKAD | 274000 | 1330 | 5.88 | 0.07 | 69800 | 1.74 | – | – | – | – | – | – | – | – | – | – | – | – | – | –
4 | variant CD80 IgV-Fc E35D/D46E/M47V/V68M/D90G/K93E (Fc fusion) VIHVTKEVKEVATLSCGHNVSVEELAQTRIYWQKDKKMVLTMMSGEVNIWPEYKNRTIFDITNNLSIMILALRPSDEGTYECVVLKYEKGAFEREHLAEVTLSVKAD | 273000 | 27100 | 6.06 | 1.5 | 71900 | 1.74 | – | – | – | – | – | – | – | – | – | – | – | – | – | –
5 | variant CD80 IgV-Fc E35D/M47V/K89N (Fc fusion) VIHVTKEVKEVATLSCGHNVSVEELAQTRIYWQKDKKMVLTMMSGDVNIWPEYKNRTIFDITNNLSIVILALRPSDEGTYECVVLKYENDAFKREHLAEVTLSVKAD | – | 507 | – | – | 4340 | – | 0.7 | – | – | – | 39300 | 5.8 | 5.8 | – | 8.6 | – | – | – | 1 | 33.9
6 | variant CD80 IgV-Fc E35D/D46V/M47V/V68M/L85Q (Fc fusion) VIHVTKEVKEVATLSCGHNVSVEELAQTRIYWQKDKKMVLTMMSGVVNIWPEYKNRTIFDITNNLSIMILALRPSDEGTYECVVQKYEKDAFKREHLAEVTLSVKAD | – | 331 | – | – | 26300 | – | 0.5 | – | – | – | 36500 | 8.5 | 8.5 | – | 79.4 | – | – | – | 0.9 | 205
7 | variant CD80 IgV-Fc M47V/V68M (Fc fusion) VIHVTKEVKEVATLSCGHNVSVEELAQTRIYWQKEKKMVLTMMSGDVNIWPEYKNRTIFDITNNLSIMILALRPSDEGTYECVVLKYEKDAFKREHLAEVTLSVKAD | – | 328 | – | – | 4290 | – | 0.5 | – | – | – | 7280 | 4.8 | 4.8 | – | 13.1 | – | – | – | 0.2 | 33.5
8 | variant CD80 IgV-Fc M47V (Fc fusion) VIHVTKEVKEVATLSCGHNVSVEELAQTRIYWQKEKKMVLTMMSGDVNIWPEYKNRTIFDITNNLSIVILALRPSDEGTYECVVLKYEKDAFKREHLAEVTLSVKAD | – | 68.7 | – | – | 2320 | – | 0.1 | – | – | – | 33300 | 3.9 | 3.9 | – | 33.7 | – | – | – | 0.8 | 18.1

Second part, the binder after the results:

Row | MFI at 33.3 nM (human CTLA-4 (human) [1]) [MFI] | MFI at 33.3 nM (CD28 (human) [2]) [MFI] | Fold change to WT CD80 (human PD-L1 (human) [3]) [fold] | Fold change to WT CD80 (CD28 (human) [4]) [fold] | MFI at 33.3 nM (human PD-L1 (human) [5]) [MFI] | Fold change to WT CD80 (human CTLA-4 (human) [6]) [fold] | Fold change to WT CD80 (CD28 (human) [7]) [fold] | Fold change to WT CD80 [8] [fold] | MFI at 33.3 nM [9] [MFI] | Ratio of PDL1:CD28 [10] | MFI at 33.3 nM (human CTLA-4 (human) [11]) [MFI] | IL-2 luciferase reporter, fold increase over WT CD80-IgV-Fc at 5.0 nM (CD28 (human) [12]) [fold] | IL-2 luciferase reporter, fold increase over WT CD80-IgV-Fc at 5.0 nM (human PD-L1 (human) [13]) [fold] | MFI at 33.3 nM [14] [MFI] | Ratio of PDL1:CD28 (human PD-L1 (human) [15]) | MFI at 33.3 nM [16] [MFI] | Fold change to WT CD80 [17] [fold] | Fold change to WT CD80 [18] [fold] | Fold change to WT CD80 (human CTLA-4 (human) [19]) [fold] | Fold change to WT CD80 (human PD-L1 (human) [20]) [fold] | Binder
9 | – | 1080 | – | – | 25900 | – | 1.5 | – | – | – | 23900 | 6.1 | 6.1 | – | 23.9 | – | – | – | 0.6 | 203 | variant CD80 IgV-Fc E35D/D46V/M47V/N48K/V68M (Fc fusion) VIHVTKEVKEVATLSCGHNVSVEELAQTRIYWQKDKKMVLTMMSGVVKIWPEYKNRTIFDITNNLSIMILALRPSDEGTYECVVLKYEKDAFKREHLAEVTLSVKAD
10 | – | 118 | – | – | 10500 | – | 0.2 | – | – | – | 26100 | 7.9 | 7.9 | – | 88.8 | – | – | – | 0.6 | 81.9 | variant CD80 IgV-Fc E35D/M47V/N48K/V68M/L85Q (Fc fusion) VIHVTKEVKEVATLSCGHNVSVEELAQTRIYWQKDKKMVLTMMSGDVKIWPEYKNRTIFDITNNLSIMILALRPSDEGTYECVVQKYEKDAFKREHLAEVTLSVKAD
11 | – | 641 | – | – | 14500 | – | 0.9 | – | – | – | 34600 | 5.8 | 5.8 | – | 22.6 | – | – | – | 0.9 | 113 | variant CD80 IgV-Fc M47V/N48K/V68M (Fc fusion) VIHVTKEVKEVATLSCGHNVSVEELAQTRIYWQKEKKMVLTMMSGDVKIWPEYKNRTIFDITNNLSIMILALRPSDEGTYECVVLKYEKDAFKREHLAEVTLSVKAD
12 | 216000 | 2460 | 3.93 | 0.14 | 46700 | 1.37 | – | – | – | – | – | – | – | – | – | – | – | – | – | – | variant CD80 IgV-Fc E35D/M47L/A71G/L85M/F92Y (Fc fusion) VIHVTKEVKEVATLSCGHNVSVEELAQTRIYWQKDKKMVLTMMSGDLNIWPEYKNRTIFDITNNLSIVILGLRPSDEGTYECVVMKYEKDAYKREHLAEVTLSVKAD
13 | – | 236 | – | – | 757 | – | 0.3 | – | – | – | 21800 | 2.5 | 2.5 | – | 3.2 | – | – | – | 0.5 | 5.9 | variant CD80 IgV-Fc E35D/K89N (Fc fusion) VIHVTKEVKEVATLSCGHNVSVEELAQTRIYWQKDKKMVLTMMSGDMNIWPEYKNRTIFDITNNLSIVILALRPSDEGTYECVVLKYENDAFKREHLAEVTLSVKAD
14 | – | 246 | – | – | 12100 | – | 0.3 | – | – | – | 30300 | 7.4 | 7.4 | – | 49.1 | – | – | – | 0.7 | 94.4 | variant CD80 IgV-Fc E35D/M47V/V68M/L85Q/K89N (Fc fusion) VIHVTKEVKEVATLSCGHNVSVEELAQTRIYWQKDKKMVLTMMSGDVNIWPEYKNRTIFDITNNLSIMILALRPSDEGTYECVVQKYENDAFKREHLAEVTLSVKAD
